This assay addresses GST-BRCA1-CT-M1775R (BRCT), human BRCA1 BRCT domain residues 1599-1863 (human) (UniProt P38398). The assay can be described thus: pull-down; GST-tagged protein immobilised on glutathione-Sepharose beads; purified recombinant His-tagged protein; binding buffer 50 mM Tris-HCl pH 7.4, 100 mM NaCl, 0.4% Nonidet P-40, 10 mM MgCl2, 5 mM EDTA, 2 mM DTT; anti-His immunoblot.

On to “His-GIV-CT (aa 1660-1870) wild type (domain or fragment)”, for which the fold change of binding against GST-BRCA1 BRCT wild type lay in the range of 3 to 5 fold.

The values above are taken from PMC9900518.
